This note sets out measurements from US20250388666A1 (BRIGHAM AND WOMEN S HOSPITAL, published 2025).

The term Kd denotes the concentration at which binding is half-saturated. Usually koff stands for a measure of how fast the partners let go of each other. Higher therefore signals fast dissociation. The term kon denotes the second-order rate constant of association.

Changes are numbered by the printed parent chain. Names may count otherwise. Where two headings read alike, the source gives them in different places.

The target in test [1] is T1, CEACAM5 (Sino Biological) (human, UniProt P06731 35-685).
T1 construct: also called hCEACAM5
T1 sequence (looked up): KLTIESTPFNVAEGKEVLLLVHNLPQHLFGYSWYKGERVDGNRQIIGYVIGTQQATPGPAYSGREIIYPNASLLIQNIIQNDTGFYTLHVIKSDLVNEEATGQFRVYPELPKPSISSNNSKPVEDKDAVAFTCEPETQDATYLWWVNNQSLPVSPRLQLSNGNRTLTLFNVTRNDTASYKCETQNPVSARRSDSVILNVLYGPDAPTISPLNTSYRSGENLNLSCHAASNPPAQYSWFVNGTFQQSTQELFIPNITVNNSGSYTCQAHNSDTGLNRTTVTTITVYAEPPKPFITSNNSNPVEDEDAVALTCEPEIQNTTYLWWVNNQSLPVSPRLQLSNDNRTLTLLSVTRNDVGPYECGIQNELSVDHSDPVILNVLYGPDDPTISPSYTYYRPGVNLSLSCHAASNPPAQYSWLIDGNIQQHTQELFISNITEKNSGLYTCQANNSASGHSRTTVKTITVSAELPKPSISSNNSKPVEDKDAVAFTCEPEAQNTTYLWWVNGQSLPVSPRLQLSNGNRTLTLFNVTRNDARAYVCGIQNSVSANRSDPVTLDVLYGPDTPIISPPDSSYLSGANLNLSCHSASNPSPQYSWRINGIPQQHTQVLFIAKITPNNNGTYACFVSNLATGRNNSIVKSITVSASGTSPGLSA
The test is described as follows: binding ELISA on plate-coated CEACAM (0.5 µg/mL); antibody at 1.67, 0.062 and 0.0069 µg/mL; signal as % of parent IgG on CEACAM1 at 1.67 µg/mL on the same plate. For orientation: ELISA stands for enzyme-linked immunosorbent assay.

Test [2] concerns the target T2, CEACAM1 (Sino Biological) (human, UniProt P13688 35-428, limits assumed).
T2 construct: may be the same as CEACAM1-HIS; also called hCEACAM1; biotinylated soluble CEACAM1
T2 sequence: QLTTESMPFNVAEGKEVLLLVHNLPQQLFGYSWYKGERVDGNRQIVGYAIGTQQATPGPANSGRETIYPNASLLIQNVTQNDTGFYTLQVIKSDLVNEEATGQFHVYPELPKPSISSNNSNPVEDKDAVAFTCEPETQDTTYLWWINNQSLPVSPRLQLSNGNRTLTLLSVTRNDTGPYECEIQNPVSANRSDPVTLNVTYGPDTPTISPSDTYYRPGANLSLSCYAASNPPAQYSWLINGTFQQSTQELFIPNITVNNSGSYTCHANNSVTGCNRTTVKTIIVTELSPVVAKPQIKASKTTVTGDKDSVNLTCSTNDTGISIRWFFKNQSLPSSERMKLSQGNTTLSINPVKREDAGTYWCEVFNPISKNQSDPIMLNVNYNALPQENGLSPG
The test is described as follows: SPR multi-cycle, IgG on Protein A. The method, then:
Multi-cycle kinetics analysis was performed on the twelve lead antibodies using a Biacore T200 instrument running Biacore T200 Evaluation Software V3.0.1 (Uppsala, Sweden) to establish an accurate affinity for CEACAM1. The purified antibodies were diluted to a concentration of […] in HBS-P+. At the start of each cycle, each antibody was captured on the Protein A surface to give an RL of ˜100 RU. Following capture, the surface was allowed to stabilize. Kinetic data was obtained using a flow rate of […] to minimize any potential mass transfer effects. For the kinetics analysis, CEACAM1 was used. Multiple repeats of the blank ([…]) and a repeat of a single concentration of the analyte were programmed into the kinetic run in order to check the stability of both the surface and analyte over the kinetic cycles. For kinetic analysis, a two-fold dilution range was selected from 200 to 3.125 nM CEACAM1. The association phase of CEACAM1 was monitored for 275 seconds and the dissociation phase was measured for 250 seconds. Regeneration of the Protein A surface was conducted using two injections of 10 mM glycine-HCL pH 1.5 at the end of each cycle.
The signal from the reference channel Fc1 was subtracted from that of Fc2, Fc3 and Fc4 to correct for differences in non-specific binding to a reference surface, and a global Rmax parameter was used in the 1-to-1 binding model. The relative KD was calculated by dividing the KD of the RSB02 Parent by that of the humanized and affinity matured variants on the same chip.

In test [3] the target is T2, CEACAM1 (Sino Biological). Description: SPR single-cycle. The method, boiled down:
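Humanized affinity-matured IgGs from crude supernatants captured on Protein A to ~100 RU, with CEACAM1 analyte injected at 25–100 nM (three-point, two-fold) in HBS-P+ without regeneration. 200 s association per injection, 300 s single dissociation; reference-channel and blank subtracted.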

The target of test [4] is T3, CEACAM6 (Sino Biological) (human, UniProt P40199 35-320).
T3 construct: also called hCEACAM6
T3 sequence (looked up): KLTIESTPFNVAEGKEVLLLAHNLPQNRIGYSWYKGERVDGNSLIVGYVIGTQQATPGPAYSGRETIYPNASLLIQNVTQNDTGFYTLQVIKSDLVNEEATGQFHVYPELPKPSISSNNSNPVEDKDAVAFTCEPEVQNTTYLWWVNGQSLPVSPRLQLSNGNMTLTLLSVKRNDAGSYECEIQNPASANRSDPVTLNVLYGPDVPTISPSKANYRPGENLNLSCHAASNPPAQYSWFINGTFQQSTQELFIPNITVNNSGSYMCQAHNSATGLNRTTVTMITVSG
The test is described as follows: binding ELISA on plate-coated CEACAM (0.5 µg/mL); antibody at 1.67, 0.062 and 0.0069 µg/mL; signal as % of parent IgG on CEACAM1 at 1.67 µg/mL on the same plate.

Test [5] concerns the target T4, CEACAM3 (Sino Biological) (human, UniProt P40198 35-155, limits assumed).
T4 construct: also called hCEACAM3
T4 sequence (looked up): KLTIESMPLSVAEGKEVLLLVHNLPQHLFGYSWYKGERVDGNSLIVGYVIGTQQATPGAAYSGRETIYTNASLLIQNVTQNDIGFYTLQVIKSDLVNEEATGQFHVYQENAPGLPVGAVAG
The test is described as above.

Test [6] addresses T1, CEACAM5 (Sino Biological). The description is as above. This is another data set of the same source.
For test [7], the target named is T5, CEACAM1 on transfected HeLa cells (Homo sapiens (Human), UniProt P13688 35-526).
T5 construct: also called C1
T5 sequence: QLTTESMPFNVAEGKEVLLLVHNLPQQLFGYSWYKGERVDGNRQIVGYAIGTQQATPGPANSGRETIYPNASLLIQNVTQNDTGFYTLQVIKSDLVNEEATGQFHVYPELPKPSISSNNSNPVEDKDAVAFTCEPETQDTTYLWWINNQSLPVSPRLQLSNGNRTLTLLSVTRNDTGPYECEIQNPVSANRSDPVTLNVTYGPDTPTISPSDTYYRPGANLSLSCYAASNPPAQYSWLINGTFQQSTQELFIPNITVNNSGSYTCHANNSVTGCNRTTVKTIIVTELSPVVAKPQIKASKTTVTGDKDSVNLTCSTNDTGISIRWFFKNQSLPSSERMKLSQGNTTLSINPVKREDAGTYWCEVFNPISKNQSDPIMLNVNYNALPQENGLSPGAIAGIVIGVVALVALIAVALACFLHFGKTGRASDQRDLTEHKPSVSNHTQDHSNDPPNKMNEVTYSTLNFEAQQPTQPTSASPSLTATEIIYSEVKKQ
The test is described as follows: flow cytometry, transfected HeLa. The method, then:
(§1) Binding selectivity of the selected antibody variants was assessed by flow cytometry using HeLa cells transfected with vectors expressing CEACAM1, CEACAM5, and CEACAM6, respectively. The resulting cells were used for flow cytometry experiments and were cultured at 37° C., 5.0% CO₂ in Dulbecco's modified Eagle's medium supplemented with 10% fetal bovine serum, penicillin (100 U/ml) and dihydrostreptomycin ([…]). Cell lines were stained with the indicated antibodies followed by fluorochrome-conjugated monoclonal antibody specific for the indicated antibody isotypes such as human IgG4 or mouse IgG1 together with viable dye (DAPI). Data were acquired with a Cytoflex flow cytometer ([…]) and analyzed with FlowJo software (TreeStar, V7.6.5 for Windows).

Test [8] addresses T6, CEACAM5 on transfected HeLa cells (UniProt P06731 35-685).
T6 construct: whole, on cells; also called C5
T6 sequence (looked up): T1 sequence (looked up)
Description: flow cytometry, transfected HeLa. The method, then:
as §1

The target in test [9] is T4, CEACAM3 (Sino Biological). The test is described as follows: binding ELISA on plate-coated CEACAM (0.5 µg/mL); antibody at 1.67, 0.062 and 0.0069 µg/mL; signal as % of parent IgG on CEACAM1 at 1.67 µg/mL on the same plate. The source holds these as a separate data set.

B1: He9/L3 (antibody, IgG4, V domains shown)
VH: EVQLLESGGGLVQPGGSLRLSCAASGFSFSDYYLYWVRQAPGKGLEWVATISVGGGQTSYADSVKGRFTISRDNSKNTLYLQMNSLRAEDTAMYYCARAMYYGPAWFAYWGQGTLVTVSS
VL: DIVMTQSPDSLAVSLGERATINCKSSQSLLNSANQKNYLAWYQQKPGQPPKLLIYFASTRESGVPDRFSGSGSGTDFTLTISSLQAEDVAVYYCQSHFPFPFTFGGGTKVEIK
notes: IgG4 S241P, kappa; also called He9 / 3
For B1, in [1], the binding result was “binds”. Besides, in test [2], binding was put at a Kd of 31.6 nM, the off-rate constant (koff) stood at 0.00139 s⁻¹, the kon was 44000 M⁻¹ s⁻¹ and the “relative KD to Parent” value was found to be 4.15 ratio. In test [3], binding was put at a Kd of 27 nM and the “fold better than Parent (KD)” value was 5.85 fold.

B2: He9/L17 (antibody, IgG4, V domains shown)
VH: B1 VH
VL: B1 VL with F98Y, F100Y, F102Y
notes: IgG4 S241P, kappa; also called He9 / 17
Turning to B2, the binding result in [1] is listed as “binds”. For the same molecule, in test [2], the Kd stood at 40.9 nM, the koff is 0.0015 s⁻¹, the kon was found to be 36700 M⁻¹ s⁻¹ and the “relative KD to Parent” value turned out to be 4.55 ratio. Besides, in [3], the Kd worked out at 33 nM and the “fold better than Parent (KD)” value was determined as 4.88 fold.

B3: Parent VH/L4#2 (antibody, IgG4, V domains shown)
VH: B1 VH with A97T, A99G, M100L
VL: B1 VL with F98Y, F100Y, F102Y
notes: IgG4 S241P, kappa; also called VHp/L4 #2; VH2 N56Q / 4#2
As for B3, in test [2], the Kd was 147 nM, the koff is 0.00437 s⁻¹, the kon amounted to 29800 M⁻¹ s⁻¹ and the “relative KD to Parent” value was 1.3 ratio. Moreover, in [3], binding was put at a Kd of 163 nM and the “fold better than Parent (KD)” value came to 3.38 fold. In addition, in test [4], the binding result is “no binding (tested: 1.67 µg/mL)”. Moreover, the binding result in test [5] is “no binding (tested: 1.67 µg/mL)”.

B4: He9/L4#2 (antibody, IgG4, V domains shown)
VH: B1 VH
VL: B1 VL with F98Y, F100Y, F102Y
notes: IgG4 S241P, kappa
As to B4, in test [2], the dissociation constant Kd was determined as 33.7 nM, the koff came out at 0.0013 s⁻¹, the kon was found to be 38600 M⁻¹ s⁻¹ and the “relative KD to Parent” value turned out to be 3.89 ratio. Further, in test [3], the Kd worked out at 57 nM and the “fold better than Parent (KD)” value amounted to 9.71 fold. In [6], the binding result is “binds”.

B5: VH1 N56Q/VK4 S27(f)A (antibody, human IgG4, V domains shown)
VH: B1 VH with A61P, A97T, A99G, M100L
VL: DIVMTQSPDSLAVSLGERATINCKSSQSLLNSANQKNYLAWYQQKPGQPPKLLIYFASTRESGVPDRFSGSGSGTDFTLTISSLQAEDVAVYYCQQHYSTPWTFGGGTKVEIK
notes: aglycosylated humanized variant; human IgG4
As to B5, the relative fluorescence intensity in [7] turned out to be 87.1; in test [8] it was 0.0622.

B6: Parent VH/L18 (antibody, IgG4, V domains shown)
VH: B1 VH with A97T, A99G, M100L
VL: B1 VL with F100Y
notes: IgG4 S241P, kappa; also called VHp/L18; VH2 N56Q / 18
Turning to B6, in test [2], the Kd was 101 nM, the koff was 0.00362 s⁻¹, the kon worked out at 35700 M⁻¹ s⁻¹ and the “relative KD to Parent” value amounted to 1.84 ratio. In addition, in test [3], the Kd is 56 nM and the “fold better than Parent (KD)” value is 2.83 fold. Also, the binding result in [4] is on record as “no binding (tested: 1.67 µg/mL)”. For the same molecule, the binding result in [5] is reported as “no binding (tested: 1.67 µg/mL)”.

B7: He4/L16 (antibody, IgG4, V domains shown)
VH: B1 VH with A97T, M100L
VL: B1 VL with F98Y, F100Y
notes: IgG4 S241P, kappa; also called He4 / 16
With B7, in test [2], the Kd came to 38.9 nM, the koff stood at 0.00146 s⁻¹, the kon amounted to 37500 M⁻¹ s⁻¹ and the “relative KD to Parent” value turned out to be 3.16 ratio. In [3], the affinity, expressed as Kd, was 52 nM and the “fold better than Parent (KD)” value stood at 3.04 fold. For the same molecule, the binding result in test [9] is recorded as “no binding (tested: 1.67 µg/mL)”.
